Data taken from PMC10653834, “Conformational variability of cyanobacterial ChlI, the AAA+ motor of magnesium chelatase involved in chlorophyll biosynthesis” (mBio, 2023).

Key:
[1] = target: T1, ChlI (Nostoc sp. PCC 7120 = FACHB-418, UniProt P58571); test: cryo-EM structure of hexamers under turnover; format: binding; conditions: ADP formed from 10 mM ATP, 50 mM MgCl2, pH 7.5; nucleotide pocket at monomer interfaces
T1 construct: full length, N-terminal His6 tag (kept), pET15b, E. coli LOBSTR; approximately 40 kDa; ATP-induced hexamer (also pentamer); residues 1-13 and 354-374 not modelled

[2] = target: T1, ChlI; test: cryo-EM structure of hexamers under turnover; malachite green ATPase assay; format: binding; conditions: 10 mM ATP, 50 mM MgCl2, pH 7.5; nucleotide pocket at monomer interfaces; hydrolysis at 37 °C
[3] = target: the molecule itself; test: mass photometry; ChlI incubated at 0.5 mg/mL in Tris buffer (20 mM Tris, 200 mM NaCl, pH 7.5) alone or with 50 mM MgCl2, no nucleotide; diluted before measurement
[4] = target: the molecule itself; test: mass photometry; ChlI incubated at 0.5 mg/mL in Tris buffer with 10 mM ADP and 50 mM MgCl2; diluted before measurement
[5] = target: the molecule itself; test: cryo-EM structure; 0.5 mg/mL ChlI with 10 mM ATP, 50 mM MgCl2, 0.05% LMNG, 1 mM DTT; no symmetry applied

For `Nc1ncnc2c1ncn2[C@@H]1O[C@H](COP(=O)(O)OP(=O)(O)O)[C@@H](O)[C@H]1O` [ADP], the “cryo-EM structure of hexamers under turnover” value [1] was “conformation B has ATP bound in four monomers and ADP in two”.

In the case of `Nc1ncnc2c1ncn2[C@@H]1O[C@H](COP(=O)(O)OP(=O)(O)OP(=O)(O)O)[C@@H](O)[C@H]1O` [ATP], the “cryo-EM structure of hexamers under turnover; malachite green ATPase assay” value [2] is reported as “Conformation A is characterized by ATP molecules bound in five monomers and ADP in one”.

B1: Nostoc sp. PCC 7120 ChlI, motor (AAA+) subunit of magnesium chelatase (enzyme, UniProt P58571 1-374, looked up)
chain: MTPTAQTTASARRVVFPFTAIVGQEEMKLALLLNVIDPKIGGVMIMGDRGTGKSTTIRALADLLPEIPVVANDPFNSDPSDPDLMSDEVRQKSGTGAEIPIEFKKVQMVDLPLGATEDRVCGTIDIEKALSEGVKAFEPGLLAKANRGILYVDEVNLLDDHLVDVLLDSAASGWNTVEREGISIRHPARFVLVGSGNPEEGELRPQLLDRFGMHAEIHTVKEPALRVQIVEQRSEFDQNPPTFLEKYNPEQTALQKKIVEAQKLLPEVKLDYDLRVKISEVCSELDVDGLRGDIVTNRAAKALTAYEGRTEVTVDDIRRVITLCLRHRLRKDPLESIDSGYKVEKVFARIFGVELLEDDSSQKNGAGQIKTGVR
notes: Magnesium chelatase subunit ChlI of Nostoc sp; PCC 7120, gene all0152, amplified from genomic DNA; The printed forward primer places ATG and six His codons before codon 2 (ACT CCA ACA ...); the reverse primer includes the stop codon; Model building counts residues 1-374; Oligomeric state depends on the nucleotide (monomers/dimers without; pentamers and hexamers with ATP and MgCl2); also called …
B1 was tested, and the “stoichiometry N” value [3] was 2, the “stoichiometry N” value [4] was 6 and the “stoichiometry N” value [5] was 5.
